Assay results from PMC3176717 (Biochemistry, 2011).
Where two headings read alike, the source gives them in different places.

How the values were obtained:
AUC [1] = target: the molecule itself; assay: AUC
AUC [2] = target: the molecule itself; assay: AUC; remark: listed apart in the source

Row | Protein | stoichiometry N (AUC [1]) | stoichiometry N (AUC [2])
1 | wild type human Prx I (peroxiredoxin I), reduced, non-glutathionylated (enzyme, UniProt Q06830 1-199, looked up) MSSGNAKIGHPAPNFKATAVMPDGQFKDISLSDYKGKYVVFFFYPLDFTFVCPTEIIAFSDRAEEFKKLNCQVIGASVDSHFCHLAWVNTPKKQGGLGPMNIPLVSDPKRTIAQDYGVLKADEGISFRGLFIIDDKGILRQITVNDLPVGRSVDETLRLVQAFQFTDKHGEVCPAGWKPGSDTIKPDVQKSKEYFSKQK | 10 | –
2 | glutathionylated Prx I (C83S) mutant (enzyme, human, UniProt Q06830 1-199, looked up, glutathionylated by disulfide exchange with GSSG; sites not stated for this mutant) MSSGNAKIGHPAPNFKATAVMPDGQFKDISLSDYKGKYVVFFFYPLDFTFVCPTEIIAFSDRAEEFKKLNCQVIGASVDSHFSHLAWVNTPKKQGGLGPMNIPLVSDPKRTIAQDYGVLKADEGISFRGLFIIDDKGILRQITVNDLPVGRSVDETLRLVQAFQFTDKHGEVCPAGWKPGSDTIKPDVQKSKEYFSKQK | – | 2
3 | human Prx I (C52S/C173S) double mutant, reduced (enzyme, UniProt Q06830 1-199, looked up) MSSGNAKIGHPAPNFKATAVMPDGQFKDISLSDYKGKYVVFFFYPLDFTFVSPTEIIAFSDRAEEFKKLNCQVIGASVDSHFCHLAWVNTPKKQGGLGPMNIPLVSDPKRTIAQDYGVLKADEGISFRGLFIIDDKGILRQITVNDLPVGRSVDETLRLVQAFQFTDKHGEVSPAGWKPGSDTIKPDVQKSKEYFSKQK | 10 | –
